Numbering of substitutions follows the chain as printed. Ends that are not written are not given here.
T1: PfCSP minor repeat region peptide, biotinylated (NVDPNANPNVDPNANPNVDP) (Plasmodium falciparum, biotinylated (end not stated))
T1 peptide: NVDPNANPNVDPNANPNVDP

T2: PfCSP junctional region peptide, biotinylated (NPDPNANPNVDPNANP) (Plasmodium falciparum, also: biotin label, end not given here)
T2 peptide: NPDPNANPNVDPNANP

T3: PfCSP N-terminal junctional region peptide, biotinylated (KQPADGNPDPNANPNV) (Plasmodium falciparum, also: biotin label, end not given here)
T3 peptide: KQPADGNPDPNANPNV

T4: PfCSP major repeat region peptide NPNA3, biotinylated (Plasmodium falciparum, also: biotin label, end not given here)
T4 peptide: NPNANPNANPNA

T5: PfCSP N-terminal junctional region peptide, biotinylated (KQPADGNPDPNANPNV) (Plasmodium falciparum 3D7, also: biotinylated, end not given here)
T5 construct: Plasmodium falciparum circumsporozoite protein (PfCSP), N-terminal junctional region; source: synthetic peptide, bought: Innopep Inc
T5 chain: KQPADGNPDPNANPNV

T6: PfCSP junctional region peptide, biotinylated (NPDPNANPNVDPNANP) (Plasmodium falciparum 3D7, also: biotinylated, end not given here)
T6 construct: Plasmodium falciparum circumsporozoite protein (PfCSP), junctional region; source: synthetic peptide, bought: Innopep Inc
T6 chain: NPDPNANPNVDPNANP

B1: Fab MS-1805 (engineered AB007088) (Fab, V domains shown)
VH: QVQLVESGGGVVQPGRSLRLSCAASGFTFNTYGMHWVRQAPGKGLEWVAIIWYDGSQKYYADSVQGRFTISRDNHKNTLYLQMNSLRAEDTAVYFCVRVRFSVGPHGSAFDLWGQGTMVTVSS
VL: GVQMTQSPSTLSASVGDRVTLTCRASQSISSWLAWYQQKPGKAPKLLIYDASSLESGVPSRFSGSGSGTEFTLTISSLQPDDFATYYCQQYNSYSFWTFGQGTKVEIK
B2: Fab 7088 (antigen-binding fragment of mAb AB007088) (Fab, V domains shown)
VH: B1 VH with T28A, A40T, T69I, Y80S, S85G, T120I
VL: B1 VL
B3: Fab 224 (antigen-binding fragment of mAb AB000224) (Fab, V domains shown)
VH: EVQLVESGGGLVQPGRSLRLPCTASGFSFGDHAMSWVRQAPGKGLEWVGFIRKTTYGATTHYAAAVRGRFTISRDDSKSIVYLQMNSLKTEDTAVYFCTRVQLDYGPGYQYYGMDVWGQGTTVTVSS
VL: ESVLTQPPSVSGAPGQRVTISCTGMNSNIGAGYDVYWYQQLPGRAPKLLIYGNSNRPSGVPDRFSGSRSGTSASLAITGLQAEDEADYYCQSYDTSLNGWAFGGGTKLTVL
notes: Fab 224 heavy chain (IGHV3-49) is in PDB 6WFY (cited) and PDB 9NOB (apo, deposited here); Fab 224 light chain (IGLV1-40) is in PDB 6WFY (cited) and PDB 9NOB (apo, deposited here); IGHV3-49/IGLV1-40; the expression methods name only the Fab genes of MAM01, 7088 and MS-1805, not Fab 224
B4: Fab MAM01 (engineered AB000224) (Fab, V domains shown)
VH: B3 VH with P21S, I80T, T90A, T99A
VL: B3 VL with E1Q, R44T
notes: as the heavy chain of m1 (Fab 224, PDB 6WFY) with the stated framework changes (Kabat numbering); as the light chain of m1 (Fab 224, PDB 6WFY) with the stated changes (Kabat numbering); Fab only; the LS mutations of the Fc are not part of it; also called MS-1797; MAM01 Fab; source: ExpiCHO cells, purified (HiTrap Protein G HP, size exclusion chromatography)

What was measured:
[1] = target: T1, PfCSP minor repeat region peptide, …; test: BLI
[2] = target: T2, PfCSP junctional region peptide, …; test: BLI
[3] = target: T3, PfCSP N-terminal junctional region …; test: BLI
[4] = target: T4, PfCSP major repeat region peptide …; test: BLI
[5] = target: T5, PfCSP N-terminal junctional region …; test: BLI; biotinylated peptides (10 ug/mL) loaded on streptavidin biosensors; Fabs in solution at 200, 100, 50, 25, 12.5 nM; kinetics buffer 1X PBS, 0.01% BSA, 0.002% Tween 20; 300 s association, 300 s dissociation; Octet Red; 1:1 global fit; settings: both partners purified
[6] = target: T6, PfCSP junctional region peptide, …; test: as above; settings: both partners purified

Row | Binder | Kd [1] [nM] | Kd [2] [nM] | Kd [3] [nM] | Kd [4] [nM] | binding result [5] | Kd [6] [nM]
1 | B1 | 28 | 20 | 23 | 25 |  | 
2 | B2 | 20 | 16 | 15 | 15 |  | 
3 | B3 | 2.9 | 72 |  | 3.5 | no binding (tested: 200 nM) | 
4 | B4 | 3.5 |  |  | 4.1 | no binding (tested: 200 nM) | 108
